What follows are substances tested against mucosa-associated lymphoid tissue lymphoma translocation protein 1 (UniProt Q9UDY8) (assay: enzyme inhibition assay, 100 nM MALT1).
Chain of mucosa-associated lymphoid tissue lymphoma translocation protein 1 (Q9UDY8 340-789): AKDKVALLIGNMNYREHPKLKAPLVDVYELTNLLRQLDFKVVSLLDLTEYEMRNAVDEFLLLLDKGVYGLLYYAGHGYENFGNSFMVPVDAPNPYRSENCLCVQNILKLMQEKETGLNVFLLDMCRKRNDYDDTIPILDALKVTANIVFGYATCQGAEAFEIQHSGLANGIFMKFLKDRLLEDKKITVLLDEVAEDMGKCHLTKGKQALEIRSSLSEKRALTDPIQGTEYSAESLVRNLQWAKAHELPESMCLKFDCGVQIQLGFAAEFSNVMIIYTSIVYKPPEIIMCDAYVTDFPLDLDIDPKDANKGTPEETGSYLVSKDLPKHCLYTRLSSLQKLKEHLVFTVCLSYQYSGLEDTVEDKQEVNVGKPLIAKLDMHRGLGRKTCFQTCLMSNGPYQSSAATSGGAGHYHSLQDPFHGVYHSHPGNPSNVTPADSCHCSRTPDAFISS

Substance | Ki [µM]
Benzyl ((S)-1-cyclohexyl-2-((S)-2-(((S)-1-fluoro-6-guanidino-2-oxohexan-3-yl)carbamoyl)piperidin-1-yl)-2-oxoethyl)carbamate (peptide) | 0.037
Benzyl ((S)-1-cyclohexyl-2-((S)-2-(((S)-1-fluoro-6-guanidino-2-oxohexan-3-yl)carbamoyl)pyrrolidin-1-yl)-2-oxoethyl)carbamate (peptide) | 0.044
Benzyl ((S)-2-((S)-2-(((S)-1-fluoro-6-guanidino-2-oxohexan-3-yl)carbamoyl)pyrrolidin-1-yl)-2-oxo-1-(pyridin-3-yl)ethyl)carbamate (peptide) | 0.055
Benzyl ((S)-2-((S)-2-(((S)-1-fluoro-6-guanidino-2-oxohexan-3-yl)carbamoyl)pyrrolidin-1-yl)-2-oxo-1-phenylethyl)carbamate (peptide) | 0.154
N-((S)-1-((S)-2-(((S)-1-Fluoro-6-guanidino-2-oxohexan-3-yl)carbamoyl)pyrrolidin-1-yl)-3-methyl-1-oxobutan-2-yl)-1-methyl-1H-pyrazole-4-carboxamide (peptide) | 0.1
N-((S)-1-((S)-2-(((S)-1-Fluoro-6-guanidino-2-oxohexan-3-yl)carbamoyl)pyrrolidin-1-yl)-3-methyl-1-oxobutan-2-yl)-2-methylthiazole-4-carboxamide (peptide) | 0.052
N-((S)-1-((S)-2-(((S)-1-Fluoro-6-guanidino-2-oxohexan-3-yl)carbamoyl)pyrrolidin-1-yl)-3-methyl-1-oxobutan-2-yl)-2-morpholinothiazole-4-carboxamide (peptide) | 0.111
N-((S)-1-((S)-2-(((S)-1-fluoro-6-guanidino-2-oxohexan-3-yl)carbamoyl)pyrrolidin-1-yl)-3-methyl-1-oxobutan-2-yl)-5-phenylthiazole-2-carboxamide (peptide) | 0.121
N-((S)-1-((S)-2-(((S)-1-fluoro-6-guanidino-2-oxohexan-3-yl)carbamoyl)pyrrolidin-1-yl)-3-methyl-1-oxobutan-2-yl)isoquinoline-6-carboxamide (peptide) | 0.059
N-((S)-1-((S)-2-(((S)-1-fluoro-6-guanidino-2-oxohexan-3-yl)carbamoyl)pyrrolidin-1-yl)-3-methyl-1-oxobutan-2-yl)isoquinoline-7-carboxamide (peptide) | 0.11
N-((S)-1-((S)-2-(((S)-1-fluoro-6-guanidino-2-oxohexan-3-yl)carbamoyl)pyrrolidin-1-yl)-3-methyl-1-oxobutan-2-yl)quinoline-2-carboxamide (peptide) | 0.055
N-((S)-1-((S)-2-(((S)-1-fluoro-6-guanidino-2-oxohexan-3-yl)carbamoyl)pyrrolidin-1-yl)-3-methyl-1-oxobutan-2-yl)quinoline-3-carboxamide (peptide) | 0.04
N-((S)-1-((S)-2-(((S)-1-fluoro-6-guanidino-2-oxohexan-3-yl)carbamoyl)pyrrolidin-1-yl)-3-methyl-1-oxobutan-2-yl)quinoline-4-carboxamide (peptide) | 0.139
benzyl ((S)-1-(((S)-1-(((S)-1-fluoro-6-guanidino-2-oxohexan-3-yl)amino)-3-hydroxy-1-oxopropan-2-yl)amino)-3-methyl-1-oxobutan-2-yl)carbamate (peptide) | 0.064

From patent US20180251489A1
